In PMC3107245:

Legend:
Assay in all cases: co-IP; 293T cells co-transfected with 1 µg Vpu-cmyc variant and 2 µg HA-tetherin; lysis in 50 mM Tris-HCl pH 7.4, 150 mM NaCl, 1% Triton X-100, 1% CHAPS; IP with anti-myc antibody and protein G agarose at 4°C; blot with anti-HA; tetherin quantified by densitometry, normalized by tubulin, Vpu WT = 100%
[1] = target: Vpu TM M3IT (HIV-1 NL4-3)
[2] = target: Vpu TM NΔ2I (HIV-1 NL4-3)
[3] = target: Vpu TM M3IV (HIV-1 NL4-3)
[4] = target: Vpu TM CΔ2I (HIV-1 NL4-3)

Chain of HA-tetherin (Q10589 1-161): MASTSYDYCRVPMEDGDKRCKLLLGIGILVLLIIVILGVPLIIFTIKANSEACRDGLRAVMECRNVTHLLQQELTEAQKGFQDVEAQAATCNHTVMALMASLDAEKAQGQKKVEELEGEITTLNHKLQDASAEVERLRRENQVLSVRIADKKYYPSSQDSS

For “HA-tetherin (from UniProt Q10589 1-161) (natural protein)”, the percent of tetherin bound relative to Vpu WT (100%) [1] was 10%, the percent of tetherin bound relative to Vpu WT (100%) [2] was 50% and the percent of tetherin bound relative to Vpu WT (100%) [3] was > 80%. The percent of tetherin bound relative to Vpu WT (100%) [4] was 25%.
